According to patent publication US20220009992A1 (FRED HUTCHINSON CANCER CENTER, published 2022):

Target: peptide #10 (from the gene EHF) presented on peptide-pulsed T2 target cells (human, UniProt P61769 21-119)
Assay: cell-based or functional assay

B1: TCR Msln530-B11 (TCR, V domains shown)
V domain 1: ETGVTQSPTHLIKTRGQQVTLRCSSQSGHNTVSWYQQALGQGPQFIFQYYREEENGRGNFPPRFSGLQFPNYSSELNVNALELDDSALYLCASSFAGGRSDTQYFGPGTRLTVLE
V domain 2: KQEVTQIPAALSVPEGENLVLNCSFTDSAIYNLQWFRQDPGKGLTSLLLIQSSQREQTSGRLNASLDKSSGRSTLYIAASQPGDSATYLCAVRLLFAQGGSEKLVFGKGTKLTVNP
Q: Which “EC50 of peptide for IFN-γ production, ratio to the EC50 for Msln530” value does the source give for B1 here?
A: Its value is > 3000 fold (EC50 for peptide #10 over EC50 for Msln530).
